Measured values reported in publication doi:10.1101/2023.02.14.528348v1.

Substrate: C[C@H](N)C(=O)N[C@@H](C)C(=O)O
Test: proton-coupled uptake, pyranine fluorescence assay in proteoliposomes
Format: biochemical, Escherichia coli
Settings: valinomycin / potassium gradient driven membrane potential

B1: DtpB (Escherichia coli K-12) (protein)
chain: MNTTTPMGMLQQPRPFFMIFFVELWERFGYYGVQGVLAVFFVKQLGFSQEQAFVTFGAFAALVYGLISIGGYVGDHLLGTKRTIVLGALVLAIGYFMTGMSLLKPDLIFIALGTIAVGNGLFKANPASLLSKCYPPKDPRLDGAFTLFYMSINIGSLIALSLAPVIADRFGYSVTYNLCGAGLIIALLVYIACRGMVKDIGSEPDFRPMSFSKLLYVLLGSVVMIFVCAWLMHNVEVANLVLIVLSIVVTIIFFRQAFKLDKTGRNKMFVAFVLMLEAVVFYILYAQMPTSLNFFAINNVHHEILGFSINPVSFQALNPFWVVLASPILAGIYTHLGNKGKDLSMPMKFTLGMFMCSLGFLTAAAAGMWFADAQGLTSPWFIVLVYLFQSLGELFISALGLAMIAALVPQHLMGFILGMWFLTQAAAFLLGGYVATFTAVPDNITDPLETLPVYTNVFGKIGLVTLGVAVVMLLMVPWLKRMIATPESH
  Km: 290 ± 40 µM
